Measured values from US20240058467A1 (SUTRO BIOPHARMA, published 2024).

Biological target: ROR1 antigen expressed on ROR1 positive Ntera-2 cells (UniProt Q01973 30-937)
Assay: cell-based or functional assay

Binder | NTERA-2 cell killing EC50 [nM] | NTERA-2 cell killing Span (%)
Conjugate 30: D04-Y180F404/K42/E161-LP14 (antibody, human IgG1, kappa, pAMF at K42 and E161 (printed * in the sequence), linked to LP14; pAMF at Y180 and F404 (printed * in the sequence), linked to LP14) heavy: MEVQLVESGGGLVQPGGSLRLSCAASGFNISDYDIHWVRQAPGKGLEWVGGIDPADGSTDYADSVKGRFTISADTSKNTAYLQMNSLRAEDTAVYYCARDYGVYDYWGQGTLVTVSSASTKGPSVFPLAPSSKSTSGGTAALGCLVKDYFPEPVTVSWNSGALTSGVHTFPAVLQSSGLSLSSVVTVPSSSLGTQTYICNVNHKPSNTKVDKKVEPKSCDKTHTCPPCPAPELLGGPSVFLFPPKPKDTLMISRTPEVTCVVVDVSHEDPEVKFNWYVDGVEVHNAKTKPREEQYNSTYRVVSVLTVLHQDWLNGKEYKCKVSNKALPAPIEKTISKAKGQPREPQVYTLPPSREEMTKNQVSLTCLVKGFYPSDIAVEWESNGQPENNYKTTPPVLDSDGSFLYSKLTVDKSRWQQGNVFSCSVMHEALHNHYTQKSLSLSPGK light: MDIQMTQSPSSLSASVGDRVTITCRASQDVNTAVAWYQQKPGAPKLLIYSASFLYSGVPSRFSGSRSGTDFTLTISSLQPEDFATYYCQQHYTTPPTFGQGTKVEIKRTVAAPSVFIFPPSDEQLKSGTASVVCLLNNFYPREAKVQWKVDNALQSGNSQSVTEQDSKDSTYSLSSTLTLSKADYEKHKVYACEVTHQGLSSPVTKSFNRGEC | 0.02 | 88
Conjugate 38: D04-Y180F404/K42/E161-LP23 (antibody, human IgG1, kappa, pAMF at K42 and E161 (printed * in the sequence), linked to LP23; pAMF at Y180 and F404 (printed * in the sequence), linked to LP23) heavy: MEVQLVESGGGLVQPGGSLRLSCAASGFNISDYDIHWVRQAPGKGLEWVGGIDPADGSTDYADSVKGRFTISADTSKNTAYLQMNSLRAEDTAVYYCARDYGVYDYWGQGTLVTVSSASTKGPSVFPLAPSSKSTSGGTAALGCLVKDYFPEPVTVSWNSGALTSGVHTFPAVLQSSGLSLSSVVTVPSSSLGTQTYICNVNHKPSNTKVDKKVEPKSCDKTHTCPPCPAPELLGGPSVFLFPPKPKDTLMISRTPEVTCVVVDVSHEDPEVKFNWYVDGVEVHNAKTKPREEQYNSTYRVVSVLTVLHQDWLNGKEYKCKVSNKALPAPIEKTISKAKGQPREPQVYTLPPSREEMTKNQVSLTCLVKGFYPSDIAVEWESNGQPENNYKTTPPVLDSDGSFLYSKLTVDKSRWQQGNVFSCSVMHEALHNHYTQKSLSLSPGK light: MDIQMTQSPSSLSASVGDRVTITCRASQDVNTAVAWYQQKPGAPKLLIYSASFLYSGVPSRFSGSRSGTDFTLTISSLQPEDFATYYCQQHYTTPPTFGQGTKVEIKRTVAAPSVFIFPPSDEQLKSGTASVVCLLNNFYPREAKVQWKVDNALQSGNSQSVTEQDSKDSTYSLSSTLTLSKADYEKHKVYACEVTHQGLSSPVTKSFNRGEC | 0.108 | 64
Conjugate 35: D04-Y180F404/K42/E161-LP19 (antibody, human IgG1, kappa, pAMF at K42 and E161 (printed * in the sequence), linked to LP19; pAMF at Y180 and F404 (printed * in the sequence), linked to LP19) heavy: MEVQLVESGGGLVQPGGSLRLSCAASGFNISDYDIHWVRQAPGKGLEWVGGIDPADGSTDYADSVKGRFTISADTSKNTAYLQMNSLRAEDTAVYYCARDYGVYDYWGQGTLVTVSSASTKGPSVFPLAPSSKSTSGGTAALGCLVKDYFPEPVTVSWNSGALTSGVHTFPAVLQSSGLSLSSVVTVPSSSLGTQTYICNVNHKPSNTKVDKKVEPKSCDKTHTCPPCPAPELLGGPSVFLFPPKPKDTLMISRTPEVTCVVVDVSHEDPEVKFNWYVDGVEVHNAKTKPREEQYNSTYRVVSVLTVLHQDWLNGKEYKCKVSNKALPAPIEKTISKAKGQPREPQVYTLPPSREEMTKNQVSLTCLVKGFYPSDIAVEWESNGQPENNYKTTPPVLDSDGSFLYSKLTVDKSRWQQGNVFSCSVMHEALHNHYTQKSLSLSPGK light: MDIQMTQSPSSLSASVGDRVTITCRASQDVNTAVAWYQQKPGAPKLLIYSASFLYSGVPSRFSGSRSGTDFTLTISSLQPEDFATYYCQQHYTTPPTFGQGTKVEIKRTVAAPSVFIFPPSDEQLKSGTASVVCLLNNFYPREAKVQWKVDNALQSGNSQSVTEQDSKDSTYSLSSTLTLSKADYEKHKVYACEVTHQGLSSPVTKSFNRGEC | 0.236 | 77
Conjugate 31: D04-Y180F404/K42/E161-LP15 (antibody, human IgG1, kappa, pAMF at K42 and E161 (printed * in the sequence), linked to LP15; pAMF at Y180 and F404 (printed * in the sequence), linked to LP15) heavy: MEVQLVESGGGLVQPGGSLRLSCAASGFNISDYDIHWVRQAPGKGLEWVGGIDPADGSTDYADSVKGRFTISADTSKNTAYLQMNSLRAEDTAVYYCARDYGVYDYWGQGTLVTVSSASTKGPSVFPLAPSSKSTSGGTAALGCLVKDYFPEPVTVSWNSGALTSGVHTFPAVLQSSGLSLSSVVTVPSSSLGTQTYICNVNHKPSNTKVDKKVEPKSCDKTHTCPPCPAPELLGGPSVFLFPPKPKDTLMISRTPEVTCVVVDVSHEDPEVKFNWYVDGVEVHNAKTKPREEQYNSTYRVVSVLTVLHQDWLNGKEYKCKVSNKALPAPIEKTISKAKGQPREPQVYTLPPSREEMTKNQVSLTCLVKGFYPSDIAVEWESNGQPENNYKTTPPVLDSDGSFLYSKLTVDKSRWQQGNVFSCSVMHEALHNHYTQKSLSLSPGK light: MDIQMTQSPSSLSASVGDRVTITCRASQDVNTAVAWYQQKPGAPKLLIYSASFLYSGVPSRFSGSRSGTDFTLTISSLQPEDFATYYCQQHYTTPPTFGQGTKVEIKRTVAAPSVFIFPPSDEQLKSGTASVVCLLNNFYPREAKVQWKVDNALQSGNSQSVTEQDSKDSTYSLSSTLTLSKADYEKHKVYACEVTHQGLSSPVTKSFNRGEC | 0.018 | 87
Conjugate 33: D04-Y180F404/K42/E161-LP17 (antibody, human IgG1, kappa, pAMF at K42 and E161 (printed * in the sequence), linked to LP17; pAMF at Y180 and F404 (printed * in the sequence), linked to LP17) heavy: MEVQLVESGGGLVQPGGSLRLSCAASGFNISDYDIHWVRQAPGKGLEWVGGIDPADGSTDYADSVKGRFTISADTSKNTAYLQMNSLRAEDTAVYYCARDYGVYDYWGQGTLVTVSSASTKGPSVFPLAPSSKSTSGGTAALGCLVKDYFPEPVTVSWNSGALTSGVHTFPAVLQSSGLSLSSVVTVPSSSLGTQTYICNVNHKPSNTKVDKKVEPKSCDKTHTCPPCPAPELLGGPSVFLFPPKPKDTLMISRTPEVTCVVVDVSHEDPEVKFNWYVDGVEVHNAKTKPREEQYNSTYRVVSVLTVLHQDWLNGKEYKCKVSNKALPAPIEKTISKAKGQPREPQVYTLPPSREEMTKNQVSLTCLVKGFYPSDIAVEWESNGQPENNYKTTPPVLDSDGSFLYSKLTVDKSRWQQGNVFSCSVMHEALHNHYTQKSLSLSPGK light: MDIQMTQSPSSLSASVGDRVTITCRASQDVNTAVAWYQQKPGAPKLLIYSASFLYSGVPSRFSGSRSGTDFTLTISSLQPEDFATYYCQQHYTTPPTFGQGTKVEIKRTVAAPSVFIFPPSDEQLKSGTASVVCLLNNFYPREAKVQWKVDNALQSGNSQSVTEQDSKDSTYSLSSTLTLSKADYEKHKVYACEVTHQGLSSPVTKSFNRGEC | 0.019 | 87
Conjugate 32: D04-Y180F404/K42/E161-LP16 (antibody, human IgG1, kappa, pAMF at K42 and E161 (printed * in the sequence), linked to LP16; pAMF at Y180 and F404 (printed * in the sequence), linked to LP16) heavy: MEVQLVESGGGLVQPGGSLRLSCAASGFNISDYDIHWVRQAPGKGLEWVGGIDPADGSTDYADSVKGRFTISADTSKNTAYLQMNSLRAEDTAVYYCARDYGVYDYWGQGTLVTVSSASTKGPSVFPLAPSSKSTSGGTAALGCLVKDYFPEPVTVSWNSGALTSGVHTFPAVLQSSGLSLSSVVTVPSSSLGTQTYICNVNHKPSNTKVDKKVEPKSCDKTHTCPPCPAPELLGGPSVFLFPPKPKDTLMISRTPEVTCVVVDVSHEDPEVKFNWYVDGVEVHNAKTKPREEQYNSTYRVVSVLTVLHQDWLNGKEYKCKVSNKALPAPIEKTISKAKGQPREPQVYTLPPSREEMTKNQVSLTCLVKGFYPSDIAVEWESNGQPENNYKTTPPVLDSDGSFLYSKLTVDKSRWQQGNVFSCSVMHEALHNHYTQKSLSLSPGK light: MDIQMTQSPSSLSASVGDRVTITCRASQDVNTAVAWYQQKPGAPKLLIYSASFLYSGVPSRFSGSRSGTDFTLTISSLQPEDFATYYCQQHYTTPPTFGQGTKVEIKRTVAAPSVFIFPPSDEQLKSGTASVVCLLNNFYPREAKVQWKVDNALQSGNSQSVTEQDSKDSTYSLSSTLTLSKADYEKHKVYACEVTHQGLSSPVTKSFNRGEC | 0.023 | 86
Conjugate 34: D04-Y180F404/K42/E161-LP18 (antibody, human IgG1, kappa, pAMF at K42 and E161 (printed * in the sequence), linked to LP18; pAMF at Y180 and F404 (printed * in the sequence), linked to LP18) heavy: MEVQLVESGGGLVQPGGSLRLSCAASGFNISDYDIHWVRQAPGKGLEWVGGIDPADGSTDYADSVKGRFTISADTSKNTAYLQMNSLRAEDTAVYYCARDYGVYDYWGQGTLVTVSSASTKGPSVFPLAPSSKSTSGGTAALGCLVKDYFPEPVTVSWNSGALTSGVHTFPAVLQSSGLSLSSVVTVPSSSLGTQTYICNVNHKPSNTKVDKKVEPKSCDKTHTCPPCPAPELLGGPSVFLFPPKPKDTLMISRTPEVTCVVVDVSHEDPEVKFNWYVDGVEVHNAKTKPREEQYNSTYRVVSVLTVLHQDWLNGKEYKCKVSNKALPAPIEKTISKAKGQPREPQVYTLPPSREEMTKNQVSLTCLVKGFYPSDIAVEWESNGQPENNYKTTPPVLDSDGSFLYSKLTVDKSRWQQGNVFSCSVMHEALHNHYTQKSLSLSPGK light: MDIQMTQSPSSLSASVGDRVTITCRASQDVNTAVAWYQQKPGAPKLLIYSASFLYSGVPSRFSGSRSGTDFTLTISSLQPEDFATYYCQQHYTTPPTFGQGTKVEIKRTVAAPSVFIFPPSDEQLKSGTASVVCLLNNFYPREAKVQWKVDNALQSGNSQSVTEQDSKDSTYSLSSTLTLSKADYEKHKVYACEVTHQGLSSPVTKSFNRGEC | 0.373 | 73
Conjugate 36: D04-Y180F404/K42/E161-LP20 (antibody, human IgG1, kappa, pAMF at K42 and E161 (printed * in the sequence), linked to LP20; pAMF at Y180 and F404 (printed * in the sequence), linked to LP20) heavy: MEVQLVESGGGLVQPGGSLRLSCAASGFNISDYDIHWVRQAPGKGLEWVGGIDPADGSTDYADSVKGRFTISADTSKNTAYLQMNSLRAEDTAVYYCARDYGVYDYWGQGTLVTVSSASTKGPSVFPLAPSSKSTSGGTAALGCLVKDYFPEPVTVSWNSGALTSGVHTFPAVLQSSGLSLSSVVTVPSSSLGTQTYICNVNHKPSNTKVDKKVEPKSCDKTHTCPPCPAPELLGGPSVFLFPPKPKDTLMISRTPEVTCVVVDVSHEDPEVKFNWYVDGVEVHNAKTKPREEQYNSTYRVVSVLTVLHQDWLNGKEYKCKVSNKALPAPIEKTISKAKGQPREPQVYTLPPSREEMTKNQVSLTCLVKGFYPSDIAVEWESNGQPENNYKTTPPVLDSDGSFLYSKLTVDKSRWQQGNVFSCSVMHEALHNHYTQKSLSLSPGK light: MDIQMTQSPSSLSASVGDRVTITCRASQDVNTAVAWYQQKPGAPKLLIYSASFLYSGVPSRFSGSRSGTDFTLTISSLQPEDFATYYCQQHYTTPPTFGQGTKVEIKRTVAAPSVFIFPPSDEQLKSGTASVVCLLNNFYPREAKVQWKVDNALQSGNSQSVTEQDSKDSTYSLSSTLTLSKADYEKHKVYACEVTHQGLSSPVTKSFNRGEC | 0.222 | 72
